Data reported in article PMC12060307.

Columns and labels:
[1] = molecular target: Japanese soil-borne wheat mosaic virus movement protein (MP^JSBWMV), as fusions MP^JSBWMV:RFP and MP^JSBWMV:GFP (Japanese soil-borne wheat mosaic virus); test: FRET or BRET; FRET-FLIM (two-photon, time-correlated single-photon counting) in agro-inoculated N. benthamiana epidermal cells, at plasmodesmata; donor MP:GFP, acceptor RFP fusion; FRET efficiency above 5% considered as interaction
[2] = tested on: MPJSBWMV:GFP (movement protein, GFP fusion, in leaf extract) (Japanese soil-borne wheat mosaic virus); test: MST; conditions: MST in leaf extract: extraction in 2x MST buffer (100 mM Tris-HCl pH 7.5, 300 mM NaCl, 10 mM MgCl2, 0.1% Tween-20, 0.1 mg/mL BSA, 10 mM DTT, protease …)

Substance | % FRET [1] | fluorescence lifetime of the donor MP:GFP [1] | Kd [2]
Japanese soil-borne wheat mosaic virus movement protein (MP^JSBWMV), as fusions MP^JSBWMV:RFP and MP^JSBWMV:GFP (natural protein) | 19.1% | 2 ns | –
RNA1JSBWMV | – | – | 15.4 nM
RNA2JSBWMV | – | – | 4.5 nM
tRNA1JSBWMV (tRNA-like structure of RNA1) | – | – | 16.2 nM
tRNA2JSBWMV (tRNA-like structure of RNA2) | – | – | 28.3 nM
